Among the data in patent publication EP1226177B1 (GENENTECH, INC., dated 2008) are IC50 values, retold here.

In this assay the target is T1, gD-huPSCA expressed on the surface of transfected cells (Herpes Simplex virus; human, UniProt O43653 12-114).
T1 construct: domain: 25 amino acids of the mature gD; also called gD-PSCA; gDPSCA
The assay is described as follows: cold competition of 125I-Mab 2403 by unlabeled Mab 2403 on PC3.gD.hu PSCA cells, four parameter fit (m3 = IC50).

B1: anti-PSCA monoclonal antibody 5F2.4H4.1E3 (antibody, V domains shown)
VH: QVQVQQPGAELVKPGAPVKLSCKASGYTFTNYWLNWVKQRPGRGLEWIGRIDPSDSEIHYDQKFKDKATLTVDKSSSTAYIQLSSLTSEDSAVYYCALTGIYAMAYWGQGTSVTVSS
VL: DIVMTQAAPSVPVTPGESVSISCRSSKSLLHSNGNTYLYWFLQRPGQSPQLLIYRMSNLASGVPDRFSGSGSGTAFTLRISRVEAEDVGVYYCLQHLEYPYTFGGGTKLELKR
notes: also called 2403; Mab 2403
Take B1: the IC50 turned out to be 13 nM. This lies in the double-digit nanomolar range.
